Source: article PMC9271825
Where “and” joins values, the source holds several entries; their conditions need not be identical. Identical values can stand only once.

Target: T1, Human Claudin-7 (Cldn7), wild type, His-tagged (human), O95471
T1 chain: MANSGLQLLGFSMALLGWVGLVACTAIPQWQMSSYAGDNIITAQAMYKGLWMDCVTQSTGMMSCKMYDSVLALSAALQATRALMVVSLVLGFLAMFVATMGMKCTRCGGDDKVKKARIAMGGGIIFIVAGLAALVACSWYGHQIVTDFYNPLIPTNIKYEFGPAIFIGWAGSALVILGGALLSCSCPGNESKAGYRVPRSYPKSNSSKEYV
Assay: SDS-PAGE and Western blot of SDS-stable oligomers; purified Cldn7 (IMAC eluate) on 10% SDS-PAGE, detected with an anti-His-tag antibody
Details: remark: other sources report otherwise

stoichiometry N: 2 and 3
B1: Human Claudin-7 (Cldn7), wild type, His-tagged, O95471 1-211 (natural protein)
chain: MANSGLQLLGFSMALLGWVGLVACTAIPQWQMSSYAGDNIITAQAMYKGLWMDCVTQSTGMMSCKMYDSVLALSAALQATRALMVVSLVLGFLAMFVATMGMKCTRCGGDDKVKKARIAMGGGIIFIVAGLAALVACSWYGHQIVTDFYNPLIPTNIKYEFGPAIFIGWAGSALVILGGALLSCSCPGNESKAGYRVPRSYPKSNSSKEYV
